Measurements from patent publication US20260242735A1.

Tests used:
human CD33 D107A (human) = human CD33 D107A (human) (UniProt P20138); experiment: alanine scan, flow cytometry, HEK293-T
human CD33 I149A (human) = human CD33 I149A (human) (UniProt P20138); experiment: alanine scan, flow cytometry, HEK293-T
human CD33 P48A (human) = human CD33 P48A (human) (UniProt P20138); experiment: alanine scan, flow cytometry, HEK293-T
human CD33 E63A (human) = human CD33 E63A (human) (UniProt P20138); experiment: alanine scan, flow cytometry, HEK293-T
human CD33 N53A (human) = human CD33 N53A (human) (UniProt P20138); experiment: alanine scan, flow cytometry, HEK293-T
human CD33 S128A (human) = human CD33 S128A (human) (UniProt P20138); experiment: alanine scan, flow cytometry, HEK293-T
human CD33 S102A (human) = human CD33 S102A (human) (UniProt P20138); experiment: alanine scan, flow cytometry, HEK293-T
human CD33 G156A (human) = human CD33 G156A (human) (UniProt P20138); experiment: alanine scan, flow cytometry, HEK293-T
human CD33 S124A (human) = human CD33 S124A (human) (UniProt P20138); experiment: alanine scan, flow cytometry, HEK293-T
human CD33 G64A (human) = human CD33 G64A (human) (UniProt P20138); experiment: alanine scan, flow cytometry, HEK293-T
human CD33 V56A (human) = human CD33 V56A (human) (UniProt P20138); experiment: alanine scan, flow cytometry, HEK293-T
human CD33 T191A (human) = human CD33 T191A (human) (UniProt P20138); experiment: alanine scan, flow cytometry, HEK293-T
human CD33 L103A (human) = human CD33 L103A (human) (UniProt P20138); experiment: alanine scan, flow cytometry, HEK293-T
human CD33 P46A (human) = human CD33 P46A (human) (UniProt P20138); experiment: alanine scan, flow cytometry, HEK293-T
human CD33 G207A (human) = human CD33 G207A (human) (UniProt P20138); experiment: alanine scan, flow cytometry
human CD33 V234A (human) = human CD33 V234A (human) (UniProt P20138); experiment: alanine scan, flow cytometry
human CD33 L270A (human) = human CD33 L270A (human) (UniProt P20138); experiment: alanine scan, flow cytometry
human CD33 V196A (human) = human CD33 V196A (human) (UniProt P20138); experiment: alanine scan, flow cytometry
human CD33 N230A (human) = human CD33 N230A (human) (UniProt P20138); experiment: alanine scan, flow cytometry
human CD33 A261S (human) = human CD33 A261S (human) (UniProt P20138); experiment: alanine scan, flow cytometry
human CD33 T240A (human) = human CD33 T240A (human) (UniProt P20138); experiment: alanine scan, flow cytometry
human CD33 G249A (human) = human CD33 G249A (human) (UniProt P20138); experiment: alanine scan, flow cytometry
human CD33 K215A (human) = human CD33 K215A (human) (UniProt P20138); experiment: alanine scan, flow cytometry
human CD33 G245A (human) = human CD33 G245A (human) (UniProt P20138); experiment: alanine scan, flow cytometry
human CD33 Q204A (human) = human CD33 Q204A (human) (UniProt P20138); experiment: alanine scan, flow cytometry
human CD33 H259A (human) = human CD33 H259A (human) (UniProt P20138); experiment: alanine scan, flow cytometry
human CD33 V214A (human) = human CD33 V214A (human) (UniProt P20138); experiment: alanine scan, flow cytometry
human CD33 T232A (human) = human CD33 T232A (human) (UniProt P20138); experiment: alanine scan, flow cytometry
human CD33 Y233A (human) = human CD33 Y233A (human) (UniProt P20138); experiment: alanine scan, flow cytometry
human CD33 D246A (human) = human CD33 D246A (human) (UniProt P20138); experiment: alanine scan, flow cytometry
human CD33 R202A (human) = human CD33 R202A (human) (UniProt P20138); experiment: alanine scan, flow cytometry
human CD33 K250A (human) = human CD33 K250A (human) (UniProt P20138); experiment: alanine scan, flow cytometry
human CD33 C212A (human) = human CD33 C212A (human) (UniProt P20138); experiment: alanine scan, flow cytometry
human CD33 R254A (human) = human CD33 R254A (human) (UniProt P20138); experiment: alanine scan, flow cytometry
human CD33 P201A (human) = human CD33 P201A (human) (UniProt P20138); experiment: alanine scan, flow cytometry
human CD33 F243A (human) = human CD33 F243A (human) (UniProt P20138); experiment: alanine scan, flow cytometry
human CD33 Q236A (human) = human CD33 Q236A (human) (UniProt P20138); experiment: alanine scan, flow cytometry
human CD33 G266A (human) = human CD33 G266A (human) (UniProt P20138); experiment: alanine scan, flow cytometry
human CD33 G263A (human) = human CD33 G263A (human) (UniProt P20138); experiment: alanine scan, flow cytometry
human CD33 F216A (human) = human CD33 F216A (human) (UniProt P20138); experiment: alanine scan, flow cytometry
human CD33 T222A (human) = human CD33 T222A (human) (UniProt P20138); experiment: alanine scan, flow cytometry
human CD33 G264A (human) = human CD33 G264A (human) (UniProt P20138); experiment: alanine scan, flow cytometry
human CD33 R225A (human) = human CD33 R225A (human) (UniProt P20138); experiment: alanine scan, flow cytometry
human CD33 H206A (human) = human CD33 H206A (human) (UniProt P20138); experiment: alanine scan, flow cytometry
human CD33 P203A (human) = human CD33 P203A (human) (UniProt P20138); experiment: alanine scan, flow cytometry
human CD33 A269S (human) = human CD33 A269S (human) (UniProt P20138); experiment: alanine scan, flow cytometry
human CD33 G256A (human) = human CD33 G256A (human) (UniProt P20138); experiment: alanine scan, flow cytometry
human CD33 V231A (human) = human CD33 V231A (human) (UniProt P20138); experiment: alanine scan, flow cytometry
human CD33 A219S (human) = human CD33 A219S (human) (UniProt P20138); experiment: alanine scan, flow cytometry
human CD33 S248A (human) = human CD33 S248A (human) (UniProt P20138); experiment: alanine scan, flow cytometry

Sequence of human CD33 H206A (human) (P20138 18-364 H206A limits assumed): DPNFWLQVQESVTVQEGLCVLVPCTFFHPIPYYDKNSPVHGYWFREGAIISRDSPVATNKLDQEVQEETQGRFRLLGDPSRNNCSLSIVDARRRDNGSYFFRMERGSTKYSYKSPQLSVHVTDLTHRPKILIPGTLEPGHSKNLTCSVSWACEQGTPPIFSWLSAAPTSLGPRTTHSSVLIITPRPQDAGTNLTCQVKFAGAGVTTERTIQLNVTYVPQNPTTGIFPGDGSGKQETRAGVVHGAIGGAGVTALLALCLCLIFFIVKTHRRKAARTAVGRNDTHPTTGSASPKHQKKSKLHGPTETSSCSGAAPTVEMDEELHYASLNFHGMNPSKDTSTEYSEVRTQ
Sequence of human CD33 A269S (human) (P20138 18-364 A269S limits assumed): as the sequence (P20138 18-364 H206A limits assumed) above, with A189H, A252S counted along it
Sequence of human CD33 G249A (human) (P20138 18-364 G249A limits assumed): as the sequence (P20138 18-364 H206A limits assumed) above, with A189H, G232A counted along it
Sequence of human CD33 E63A (human) (P20138 18-364 E63A limits assumed): as the sequence (P20138 18-364 H206A limits assumed) above, with E46A, A189H counted along it
Sequence of human CD33 Y233A (human) (P20138 18-364 Y233A limits assumed): as the sequence (P20138 18-364 H206A limits assumed) above, with A189H, Y216A counted along it
Sequence of human CD33 C212A (human) (P20138 18-364 C212A limits assumed): as the sequence (P20138 18-364 H206A limits assumed) above, with A189H, C195A counted along it
Sequence of human CD33 V234A (human) (P20138 18-364 V234A limits assumed): as the sequence (P20138 18-364 H206A limits assumed) above, with A189H, V217A counted along it
Sequence of human CD33 T222A (human) (P20138 18-364 T222A limits assumed): as the sequence (P20138 18-364 H206A limits assumed) above, with A189H, T205A counted along it
Sequence of human CD33 Q236A (human) (P20138 18-364 Q236A limits assumed): as the sequence (P20138 18-364 H206A limits assumed) above, with A189H, Q219A counted along it
Sequence of human CD33 D107A (human) (P20138 18-364 D107A limits assumed): as the sequence (P20138 18-364 H206A limits assumed) above, with D90A, A189H counted along it
Sequence of human CD33 G207A (human) (P20138 18-364 G207A limits assumed): as the sequence (P20138 18-364 H206A limits assumed) above, with A189H, G190A counted along it
Sequence of human CD33 R202A (human) (P20138 18-364 R202A limits assumed): as the sequence (P20138 18-364 H206A limits assumed) above, with R185A, A189H counted along it
Sequence of human CD33 A219S (human) (P20138 18-364 A219S limits assumed): as the sequence (P20138 18-364 H206A limits assumed) above, with A189H, A202S counted along it
Sequence of human CD33 G64A (human) (P20138 18-364 G64A limits assumed): as the sequence (P20138 18-364 H206A limits assumed) above, with G47A, A189H counted along it

In the case of Refmab #7 (WM53) (antibody), the Mean % WT Binding (human CD33 D107A (human)) is reported as 113 % WT binding, the Mean % WT Binding (human CD33 I149A (human)) is reported as 96.9 % WT binding and the Mean % WT Binding (human CD33 P48A (human)) is reported as 42.5 % WT binding. It also gave a Mean % WT Binding (human CD33 E63A (human)) of 93 % WT binding, a Mean % WT Binding (human CD33 N53A (human)) of 140 % WT binding and a Mean % WT Binding (human CD33 S128A (human)) of 179 % WT binding. For the same substance, the Mean % WT Binding (human CD33 S102A (human)) was 111 % WT binding, the Mean % WT Binding (human CD33 G156A (human)) was 112 % WT binding and the Mean % WT Binding (human CD33 S124A (human)) was 81.8 % WT binding. For the same substance, the Mean % WT Binding (human CD33 G64A (human)) was 119 % WT binding, the Mean % WT Binding (human CD33 V56A (human)) was 117 % WT binding and the Mean % WT Binding (human CD33 T191A (human)) was 116 % WT binding. For the same substance, the Mean % WT Binding (human CD33 L103A (human)) was 109 % WT binding, the Mean % WT Binding (human CD33 P46A (human)) was 75.3 % WT binding and the Mean % WT Binding (human CD33 G207A (human)) was 104 % WT binding. For the same substance, the Mean % WT Binding (human CD33 V234A (human)) was 98.6 % WT binding, the Mean % WT Binding (human CD33 L270A (human)) was 99.8 % WT binding and the Mean % WT Binding (human CD33 V196A (human)) was 117 % WT binding. It also gave a Mean % WT Binding (human CD33 N230A (human)) of 100 % WT binding, a Mean % WT Binding (human CD33 A261S (human)) of 102 % WT binding and a Mean % WT Binding (human CD33 T240A (human)) of 121 % WT binding. The Mean % WT Binding (human CD33 G249A (human)) was 114 % WT binding, the Mean % WT Binding (human CD33 K215A (human)) was 145 % WT binding and the Mean % WT Binding (human CD33 G245A (human)) was 122 % WT binding. The Mean % WT Binding (human CD33 Q204A (human)) was 117 % WT binding, the Mean % WT Binding (human CD33 H259A (human)) was 119 % WT binding and the Mean % WT Binding (human CD33 V214A (human)) was 120 % WT binding. The Mean % WT Binding (human CD33 T232A (human)) was 95.3 % WT binding, the Mean % WT Binding (human CD33 Y233A (human)) was 109 % WT binding and the Mean % WT Binding (human CD33 D246A (human)) was 99.5 % WT binding. For the same substance, the Mean % WT Binding (human CD33 R202A (human)) was 104 % WT binding, the Mean % WT Binding (human CD33 K250A (human)) was 118 % WT binding and the Mean % WT Binding (human CD33 C212A (human)) was 17.8 % WT binding. For the same substance, the Mean % WT Binding (human CD33 R254A (human)) was 126 % WT binding, the Mean % WT Binding (human CD33 P201A (human)) was 110 % WT binding and the Mean % WT Binding (human CD33 F243A (human)) was 91.8 % WT binding. It also gave a Mean % WT Binding (human CD33 Q236A (human)) of 94.3 % WT binding, a Mean % WT Binding (human CD33 G266A (human)) of 110 % WT binding and a Mean % WT Binding (human CD33 G263A (human)) of 104 % WT binding. The Mean % WT Binding (human CD33 F216A (human)) was 112 % WT binding, the Mean % WT Binding (human CD33 T222A (human)) was 110 % WT binding and the Mean % WT Binding (human CD33 G264A (human)) was 82.8 % WT binding. It also gave a Mean % WT Binding (human CD33 R225A (human)) of 99.8 % WT binding, a Mean % WT Binding (human CD33 H206A (human)) of 108 % WT binding and a Mean % WT Binding (human CD33 P203A (human)) of 113 % WT binding. The Mean % WT Binding (human CD33 A269S (human)) was 118 % WT binding, the Mean % WT Binding (human CD33 G256A (human)) was 106 % WT binding and the Mean % WT Binding (human CD33 V231A (human)) was 112 % WT binding. It also gave a Mean % WT Binding (human CD33 A219S (human)) of 121 % WT binding and a Mean % WT Binding (human CD33 S248A (human)) of 113 % WT binding.
